{
  "source": "paper PMC8578170",
  "about": "“Electron carriers involved in autotrophic and heterotrophic acetogenesis in the thermophilic bacterium Thermoanaerobacter kivui” (Extremophiles, 2021)",
  "key": {"[1]": {"target": "T1, His-MetFV (Thermoanaerobacter kivui, UniProt A0A097ATJ3)", "T1 construct": "gene metF; with Methylenetetrahydrofolate reductase subunit MetV", "T1 sequence (A0A097ATJ3 1-291)": "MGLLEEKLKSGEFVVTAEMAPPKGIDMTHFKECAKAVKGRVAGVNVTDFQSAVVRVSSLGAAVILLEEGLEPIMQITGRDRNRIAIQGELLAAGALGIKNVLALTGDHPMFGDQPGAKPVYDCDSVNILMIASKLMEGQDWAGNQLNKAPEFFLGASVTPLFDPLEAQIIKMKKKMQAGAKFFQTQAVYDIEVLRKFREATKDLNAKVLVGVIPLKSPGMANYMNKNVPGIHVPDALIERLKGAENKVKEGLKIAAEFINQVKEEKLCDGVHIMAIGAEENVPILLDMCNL", "T1 sequence (A0A097ATJ4 1-216 partner)": "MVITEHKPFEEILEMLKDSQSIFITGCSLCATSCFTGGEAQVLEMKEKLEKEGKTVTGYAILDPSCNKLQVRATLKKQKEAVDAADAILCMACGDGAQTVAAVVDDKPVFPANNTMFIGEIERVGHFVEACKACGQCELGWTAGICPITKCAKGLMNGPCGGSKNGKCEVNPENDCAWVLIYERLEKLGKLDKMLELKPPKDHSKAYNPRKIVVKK", "test": "thin-layer chromatography of flavin released from purified complex", "format": "binding", "conditions": "10 µM FMN in purification buffers unless otherwise specified"}, "[2]": {"target": "T1, His-MetFV", "test": "spectrophotometric methyl-THF:benzyl viologen oxidoreductase assay, […] nm", "format": "biochemical", "conditions": "1 mM methyl-THF, 10 mM benzyl viologen; 50 mM KPi, 20 mM ascorbate, pH 7, 66 °C"}, "[3]": {"target": "T1, His-MetFV", "test": "spectrophotometric reduced methyl viologen:methylene-THF oxidoreductase assay, […] nm", "format": "biochemical", "conditions": "methylene-THF formed from 0.5 mM THF and 1.5 mM formaldehyde; 10 mM methyl viologen, dithionite; 50 mM KPi, 20 mM ascorbate, pH 7, 66 °C"}, "[4]": {"target": "His-HydABC, electron-bifurcating hydrogenase complex of T. kivui (Thermoanaerobacter kivui)", "test": "SEC; analytical size exclusion chromatography on a calibrated Superdex 200 column with size standards; buffer B (50 mM Tris/HCl, 150 mM NaCl, 20 mM MgSO4, 2 mM DTE, 20% glycerol, pH 7.5)"}, "[5]": {"target": "His-HydABC, electron-bifurcating hydrogenase complex of T. kivui (Thermoanaerobacter kivui)"}, "[6]": {"substrate": "NC(=O)c1ccc[n+]([C@@H]2O[C@H](COP(=O)(O)OP(=O)(O)OC[C@H]3O[C@@H](n4cnc5c(N)ncnc54)[C@H](OP(=O)(O)O)[C@@H]3O)[C@@H](O)[C@H]2O)c1", "test": "purified protein", "conditions": "H2 and C. pasteurianum ferredoxin as co-substrates, 5 µM FMN, 50 mM EPPS, 10 mM NaCl, pH 8, 66 °C"}, "[7]": {"substrate": "Cc1cc2nc3c(=O)[nH]c(=O)nc-3n(C[C@H](O)[C@H](O)[C@H](O)COP(=O)(O)O)c2cc1C", "test": "spectrophotometric H2:Fd/NADP+ oxidoreductase assay", "format": "biochemical, Thermoanaerobacter kivui", "conditions": "H2, ferredoxin and NADP+ as co-substrates, pH 8, 66 °C, FMN stimulation of activity, error exceeds the value, varied: cofactor"}, "[8]": {"target": "the molecule itself", "test": "SEC; analytical size exclusion chromatography on a calibrated Superdex 200 column with size standards; buffer B (50 mM Tris/HCl, 150 mM NaCl, 20 mM MgSO4, 2 mM DTE, 20% glycerol, pH 7.5)"}},
  "data": [
    {"molecule": "Cc1cc2nc3c(=O)[nH]c(=O)nc-3n(C[C@H](O)[C@H](O)[C@H](O)COP(=O)(O)O)c2cc1C", "note": "[FMN]", "values": [
      {"measurement": "thin-layer chromatography of flavin released from purified complex", "setting": "[1]", "result": "subsequent separation of the flavin-containing supernatant by thin-layer chromatography (TLC), FMN could be detected"}
    ]},
    {"molecule": "CN1c2c(nc(N)[nH]c2=O)NC[C@@H]1CNc1ccc(C(=O)N[C@@H](CCC(=O)O)C(=O)O)cc1", "note": "[methyl-THF]", "values": [
      {"measurement": "spectrophotometric methyl-THF:benzyl viologen oxidoreductase assay, 600 nm", "setting": "[2]", "result": "oxidation of methyl-THF was not coupled to NAD^+, NADP^+ or Fd reduction"}
    ]},
    {"molecule": "Nc1nc2c(c(=O)[nH]1)N1CN(c3ccc(C(=O)N[C@@H](CCC(=O)O)C(=O)O)cc3)C[C@H]1CN2", "note": "[methylene-THF]", "values": [
      {"measurement": "spectrophotometric reduced methyl viologen:methylene-THF oxidoreductase assay, 6", "setting": "[3]", "result": "The purified MetFV complex catalyzed the reduction of methylene-THF with reduced MV"}
    ]},
    {"molecule": "His-HydABC, electron-bifurcating hydrogenase complex of T. kivui (from UniProt A0A097ATG4 1-630; A0A097ATI0 1-170)", "values": [
      {"measurement": "stoichiometry N", "setting": "[4]", "result": 2}
    ]},
    {"molecule": "ferredoxin isolated from Clostridium pasteurianum (natural protein) MAYKIADSCVSCGACASECPVNAISQGDSIFVIDADTCIDCGNCANVCPVGAPVQE", "values": [
      {"measurement": "Km for Fd in the NADP+-dependent H2:Fd oxidoreductase assay (Fd 0–200 µM, 66 °C)", "setting": "[5]", "result": 13.6, "unit": "µM"}
    ]},
    {"molecule": "His-HydABC (Thermoanaerobacter kivui) (protein, HydABC complex, 10xHis tag at 3' end of hydA, plasmid pMU131, produced homologously in T. kivui; Ni-NTA and Superdex 200; 348 kDa, dimer of HydABC (HydA 64, HydB 68, HydC 18 kDa); with Electron-bifurcating [FeFe] hydrogenase subunit HydA; Electron-bifurcating hydrogenase subunit HydC) MVKLKSIQELENLREKIKEAKKKEKIVIRICGGTGCRASGSLAVRDELVKVLKREGFANVDVNLSSDCLENTSEVHVKMTGCQGFCAQGPLMTIEPLGVFYVGVKPEDVEEIVEKSIKKNEIIERLLYHDPATGKTYVKRDENPFYAKQTRLVLKHCGTVDPASVYDYIAEGGYSAIAKALTMDRKQIIDEVIKSGLRGRGGAGFPTGEKWLGAYKNQSPKKYIICNGDEGDPGAFMDRSVMEGDPHKVIEGMMIGAYAIGSDEGYIYVRAEYPLAVQMLRKAIEECEKLGLLGDNILGTGFSFRLHVREGAGAFVCGESTALTYSIEGKRGMPRVRPPRTNECGLWEMPTVLNNVETFACIPEIILNGGEWFASIGTPTSTGTKIFALSGKVNRTGLVEVPMGLKLRELIFDIGGGIANNKKFKAVQLGGPSGGCVPESQLDLPIDFDSLSKAGAIMGSGGVVVVDEDTCMVDFAKFFTNFIVEESCGKCIPCREGNKKMLEILERITEGKGKEGDIELLEELGDVIISASLCGLGKTAPNPVLSTIKHFRDEYEAHIRDKKCPAGACQALAAYKIDPGKCIGCGKCVKVCPVGAISGEKKKPHVIDQSKCIKCGACAENCPKGAIYKG", "values": [
      {"measurement": "Km", "setting": "[6]", "result": "48.8 ± 10.6", "unit": "µM"},
      {"measurement": "Km", "setting": "[7]", "result": "0.3 ± 0.8", "unit": "µM"}
    ]},
    {"molecule": "His-MetFV, methylene-THF reductase complex of T. kivui (complex, Thermoanaerobacter kivui, One MetFV heterodimer; By analytical SEC the purified complex (174 kDa) is consistent with three MetFV heterodimers; It contains iron-sulfur clusters and FMN; also called MTHFR; MetFV heterodimer; source: T. kivui (DSM 2030), plasmid pMU131_His-metFV, produced homologously, purified (Ni2+-NTA, Superdex 200)) chain 1: MGLLEEKLKSGEFVVTAEMAPPKGIDMTHFKECAKAVKGRVAGVNVTDFQSAVVRVSSLGAAVILLEEGLEPIMQITGRDRNRIAIQGELLAAGALGIKNVLALTGDHPMFGDQPGAKPVYDCDSVNILMIASKLMEGQDWAGNQLNKAPEFFLGASVTPLFDPLEAQIIKMKKKMQAGAKFFQTQAVYDIEVLRKFREATKDLNAKVLVGVIPLKSPGMANYMNKNVPGIHVPDALIERLKGAENKVKEGLKIAAEFINQVKEEKLCDGVHIMAIGAEENVPILLDMCNL chain 2: MVITEHKPFEEILEMLKDSQSIFITGCSLCATSCFTGGEAQVLEMKEKLEKEGKTVTGYAILDPSCNKLQVRATLKKQKEAVDAADAILCMACGDGAQTVAAVVDDKPVFPANNTMFIGEIERVGHFVEACKACGQCELGWTAGICPITKCAKGLMNGPCGGSKNGKCEVNPENDCAWVLIYERLEKLGKLDKMLELKPPKDHSKAYNPRKIVVKK", "values": [
      {"measurement": "stoichiometry N", "setting": "[8]", "result": 3}
    ]}
  ]
}
